Measurements: patent publication US9573983B2, “Compositions including I-domain antigen conjugate compounds and methods for treatment of autoimmune disorders” (University of Kansas, priority 2012, dated 2017)

Tests used:
EAE mouse model [1] = settings: earlier study (ref. 7); cited from earlier work
mouse EAE model = test: Suppression of EAE in PLP139-151/CFA-immunized mice (Example 1); format: in vivo, female inbred SJL/J mice; settings: for clinical disease scores (suppression of EAE) / incidence of disease: Ac-PLP-BPI-NH2-2 100 nmol/injection days 4, 7, 10; for clinical disease scores (suppression of EAE): p<0.0001, days 12-17; for incidence of disease: p<0.0001, days 12-24
Protocol: Female inbred SJL/J mice, 5-7 weeks old, were randomly divided into different groups. All mice were immunized with PLP139-151 in Freund's complete adjuvant (CFA) to induce EAE, as reported previously (3, 4). The PLP/CFA emulsion (50 μL per site) was administered to four separate regions above the shoulder and on the flanks. In addition, 200 ng of pertussis toxin (List Biological Laboratories Inc., Campbell, Calif.) was injected intraperitoneally on day 0 and 2.
After disease stimulation, one group of mice received intravenous (i.v.) injections of 26 nmol/injection/day of the conjugate IDAC on days 4 and 7. The second and third groups of mice received i.v. injections of 100 nmol/injection/day of Ac-PLP-BPI-NH2-2 and 100 microliter of PBS, respectively, on days 4, 7, and 10. The animals were weighed and observed daily. Disease progression was evaluated observed using a blinded method as reported previously (3, 4). The clinical scores were rated using the following scale: 0—no clinical signs of disease; 1—tail weakness or limp tail; 2—paraparesis (weakness or incomplete paralysis of one or two hind limbs); 3—paraplegia (complete paralysis of two hind limbs); 4—paraplegia with forelimb weakness or paralysis; and 5—moribund or dead.
Statistical differences among the groups in clinical disease scores were determined by calculating the average score for each mouse from the day of disease onset to day 20 by One-way Analysis of Variance followed by Fisher's least significant difference using StatView (SAS Institute, Cary, N.C.). Statistical differences among the groups in body weight were also analyzed in the same way. The presence of significant difference is denoted with p-values of <0.05 or <0.001.

EAE mouse model [2] = test: Suppression of EAE, prophylactic and vaccine-like treatment (Example 2); format: in vivo, SJL/J female mice
Protocol: Six-to-eight week old SJL/J female mice were immunized subcutaneously with 200 μg PLP139-151 peptide in a 0.2 ml emulsion consisting of equal volumes of PBS and complete Freund's adjuvant (CFA) containing killed mycobacterium tuberculosis strain H37RA at a final concentration of 4 mg/ml (Difco, Detroit, Mich.). The PLP/CFA emulsion was administered to regions above the shoulder and the flanks (total of 4 sites, 50 μl at each injection site). In addition, 200 ng of pertussis toxin was injected intraperitoneally on the day of immunization (day 0) and 2 days post-immunization.
The mice then received either intravenous or subcutaneous injections of IDAC (10 or 26 nmol/injection) or peptides (100 nmol/injection for Ac-PLP-BPI-NH2-2 or 50 nmol/injection/mouse for Ac-PLP-cIBR1-NH2). The prophylactic disease suppression was carried out with subcutaneous or intravenous injections of IDAC molecules on days 4 and 7, or BPI molecules on days 4, 7, and 10. Mice receiving vaccine-like treatment were given subcutaneous injections of IDAC and BPI molecules at 11, 8, and 5 days prior to the induction of disease. As negative controls, mice were treated with PBS, 1-domain, and GMB-I-domain. Disease progression was evaluated by monitoring the change in weight of the mice and clinical scoring based on the severity of nerve damage ranging from 0 to 5: 0—no clinical symptoms of disease; 1—tail weakness or limp tail; 2—paraparesis (weakness or partial paralysis of one or two hind limbs); 3—paraplegia (complete paralysis of two hind limbs); 4—paraplegia with forelimb weakness or paralysis; 5—moribund (at this point, the affected mice were euthanized).
Statistical differences among the groups in clinical disease scores were determined by calculating the average score for each mouse from day 12 to day 17 by one-way analysis of variance followed by Fisher's least significant difference. Statistical differences in body weight among groups were also analyzed in the same fashion, but from day 12 to day 24. Comparison of cytokine concentrations was also performed by one-way analysis of variance. All analyses were performed using StatView (SAS Institute, Cary, N.C.).

[3] = Solubility of peptide during conjugation; format: physicochemical; settings: conjugation reaction mixture; peptide dissolved in DMSO before addition
[4] = Hydrolysis of maleimide groups upon storage; format: physicochemical; settings: storage after SEC purification; to be used within 48 h
[5] = i.v., IDAC 26 nmol/injection days 4, 7, vs PBS

Molecule: Ac-HSLGKWLGHPDKF-(AcpGAcpGAcp)2-ITDGEATDSG-NH2 [Ac-PLP-BPI-NH2-2, reference compound]
- suppression of EAE, capped vs uncapped peptide (EAE mouse model [1]): could suppress EAE better than its uncapped counterpart (PLP-BPI)
- clinical disease scores (suppression of EAE) (mouse EAE model; [5]): complete suppression of the disease
- incidence of disease (mouse EAE model; [5]): completely eliminated
- clinical scores (suppression of EAE) (EAE mouse model [2]; vaccine-like s.c. days -11, -8, -5, IDAC-3 10 nmol/injection, Ac-PLP-BPI-NH2-2 100 nmol/injection, vs PBS, p<0.005, days 12-17): significantly suppressed EAE compared to PBS
- change in body weight (EAE mouse model [2]; vaccine-like s.c. days -11, -8, -5, IDAC-3 10 nmol/injection, Ac-PLP-BPI-NH2-2 100 nmol/injection, vs PBS, p<0.005, days 12-24): significantly suppressed EAE compared to PBS
- onset of disease (incidence of disease) (EAE mouse model [2]; vaccine-like s.c., IDAC-3 26 nmol/injection days -11, -8, Ac-PLP-BPI-NH2-2 100 nmol/injection days -11, -8, -5): Delay in the onset of disease
- relapse of disease (long-term effect) (EAE mouse model [2]; vaccine-like s.c., IDAC-3 26 nmol/injection days -11, -8, Ac-PLP-BPI-NH2-2 100 nmol/injection days -11, -8, -5, days 45-55): along-term effect to prevent relapse

Molecule: Ac-GWYRSPFSRVVHLC-NH2 [MOG-Cys, Ac-GWYRSPFSRVVHLC-NH2]
- solubility [3]: low solubility

B1: [N-(γ-maleimido)-1-oxybutyl]n-I-domain (protein, listed as Homo sapiens)
chain: MGNVDLVFLFDGSMSLQPDEFQKILDFMKDVMKKLSNTSYQFAAVQFSTSYKTEFDFSDYVKRKDPDALLKHVKHMLLLTNTFGAINYVATEVFREELGARPDATKVLIIITDGEATDSGNIDAAKDIIRYIIGIGKHFQTKESQETLHKFASKPASEFVKILDTFEKLKDLFTELQKKIY
modifications: GMBS maleimide-modified lysines
notes: I-domain with lysine amino groups modified by GMBS to carry maleimide groups; negative control and intermediate
- formation of maleimide hydrolysis products (stability) [4]: increased upon storage
- suppression of progress of EAE (clinical score, change in body weight, incidence of disease) (EAE mouse model [2]; two i.v. injections, 26 nmol/injection, days 4 and 7, vs PBS): neither the I-domain nor GMB-I-domain significantly suppressed the progress of EAE
- onset of disease (EAE mouse model [2]; two i.v. injections, 26 nmol/injection, days 4 and 7, vs PBS, I-domain controls): slight delay in the onset of the disease

B2: (HSLGKWLGHPDKFC)n-linker-I-domain (conjugate, listed as Homo sapiens)
chain 1: HSLGKWLGHPDKFC
chain 2: B1 chain
modifications: maleimide linker conjugation, ~2.5 peptides; Chemically synthesized signal 1 moiety peptide with amino acids 139-151 of PLP protein modified with a terminal cysteine
notes: PLP-Cys-OH peptides conjugated via maleimide linkers to lysine residues of LFA-1 I-domain; average 2.5 peptides per I-domain
- clinical disease scores (suppression of EAE) (mouse EAE model; [5]): significant efficacy to suppress the progress of EAE
- incidence of disease (mouse EAE model; [5]): delayed
- change in body weight (mouse EAE model; [5]): prevent the changes of bodyweights of the mice significantly
- efficacy compared with the BPI molecule (mouse EAE model; two i.v. injections of 26 nmol IDAC vs three of 100 nmol Ac-PLP-BPI-NH2-2): appeared less than that of the BPI molecule
- disease incidence (EAE mouse model [2]; i.v. 26 nmol/injection days 4 and 7, vs PBS): delays in disease incidence
- onset of disease (clinical scores) (EAE mouse model [2]; i.v. 26 nmol/injection days 4 and 7, vs PBS, IDAC molecules): delayed the onset of disease
- clinical scores (suppression of EAE) (EAE mouse model [2]; i.v. 26 nmol/injection days 4 and 7, vs PBS, p<0.0005, days 12-17): significantly better at suppressing EAE than PBS
- body weight change (EAE mouse model [2]; i.v. 26 nmol/injection days 4 and 7, vs PBS, p<0.05, days 12-24): significantly more effective than PBS in suppressing disease
